Read-outs that look alike come from different tables or passages of the source.
How the values were obtained:
[1] = biological target: LSD1_(172-833), lysine-specific demethylase 1 (human) (UniProt O60341); test: enzyme inhibition kinetics (HRP-coupled fluorescence demethylation assay); 25 nM LSD1, substrate H3K4me1_(1-21), 25 mM Tris, 50 mM NaCl, 0.1 mg/mL BSA, pH 8, 1% DMSO; Ki by global fit of competitive inhibition for 1, 11, 24, 28, 31, 33, 34, else from IC50 by Cheng-Prusoff (substrate 20 μM)
[2] = biological target: LSD1_(172-833), lysine-specific demethylase 1 (human) (UniProt O60341)
[3] = biological target: LSD1_(172-833), lysine-specific demethylase 1 (human) (UniProt O60341); remark: listed apart in the source

Substance | Ki [1] | % inhibition of LSD1 demethylase activity at 100 μM peptide [2] | % inhibition of LSD1 demethylase activity at 100 μM peptide [3] | IC50 of inhibition of LSD1 demethylase activity [3]
lactam 28 (Glu3-Lys6 lactam-bridged H3_(1-11) K4M) (peptide) | 4 µM | 98% |  | 
lactam 32 (D-Glu3-Lys6 lactam-bridged H3_(1-11) K4M) (peptide) | > 100 µM | < 20% |  | 
macrocycle 31 (D-Lys3-Glu6 lactam-bridged H3_(1-11) K4M) (peptide) | 2.3 µM | 100% |  | 
peptide 20, linear precursor of 21 (allylglycine at positions 3 and 6 of H3_(1-11) K4M) |  |  | 95% | 10 µM

Further substances by falling Ki [1], results first:

Ki [1] | % inhibition of LSD1 demethylase activity at 100 μM peptide [2] | % inhibition of LSD1 demethylase activity at 100 μM peptide [3] | IC50 of inhibition of LSD1 demethylase activity [3] | Substance
31 µM | 65% |  |  | lactam 27 (Lys3-Glu6 lactam-bridged H3_(1-11) K4M) (peptide)
22 µM | 75% |  |  | lactam 30 (A1P-substituted lactam 28) (peptide)
7 µM | 90% |  |  | lactam 29 (A1P-substituted lactam 27) (peptide)
